Data on 6 proteins can be found in publication PMC4225772.

Series [1] in a line: FX activation assay, CHO cell surface. As to conditions: glycan lost; control: wild-type TF-GFP.
Series [2] in a line: cell-surface TF antigen, radiolabelled mAb binding, CHO. As to conditions: glycan lost; control: wild-type TF-GFP.
Series [3] can be described thus: CHO lysates, GFP immunoblot and GFP fluorescence. Conditions: glycan lost; control: wild-type TF-GFP. On the technique in general: A western blot detects proteins with antibodies after separation by electrophoresis.
The next series in a line: TF antigen ELISA, PBMC. Conditions: glycan lost; control: LPS-stimulated PBMC without tunicamycin.
Series [4] in a line: FX activation on intact PBMC. As to conditions: glycan lost; control: LPS-stimulated PBMC without tunicamycin.
The nature of series [5]: FX activation in freeze-thaw HUVEC lysates. Conditions: glycan lost; control: wild-type TF-GFP.
Series [6] can be described thus: confocal microscopy, GFP and TF immunostaining, HUVEC. Conditions: glycan lost; control: wild-type TF-GFP.
The nature of series [7]: FX activation assay, HUVEC surface. Conditions: glycan lost; control: wild-type TF-GFP.

B1: tissue factor (TF): TFN11A (protein)
parent chain: METPAWPRVPRPETAVARTLLLGWVFAQVAGASGTTNTVAAYNLTWKSTNFKTILEWEPKPVNQVYTVQISTKSGDWKSKCFYTTDTECDLTDEIVKDVKQTYLARVFSYPAGNVESTGSAGEPLYENSPEFTPYLETNLGQPTIQSFEQVGTKVNVTVEDERTLVRRNNTFLSLRDVFGKDLIYTLYYWKSSSSGKKTAKTNTNEFLIDVDKGENYCFSVQAVIPSRTVNRKSTDSPVECMGQEKGEFREIFYIIGAVVFVVIILVIILAISLHKCRKAGVGQSWKENSPLNVS
On to B1, for which the enzymatic_activity entry in series [1] is recorded as “no change”. In addition, the localisation_or_trafficking result in series [2] is listed as “no change”. The expression_or_secretion result in series [3] is “no change”.

B2: tissue factor (TF): tunicamycin (protein)
parent chain: B1 parent chain
Regarding B2, the expression_or_secretion entry in the series “TF antigen ELISA, PBMC” is “no change”. Further, in series [4], the enzymatic_activity entry is “no change”.

B3: tissue factor (TF): TFN11A/N124A/N137A (protein)
parent chain: B1 parent chain
On to B3, for which the enzymatic_activity entry in series [1] is given as “no change”. Besides, the localisation_or_trafficking entry in series [2] was “no change”. Besides, in series [3], the expression_or_secretion entry was “no change”.

B4: tissue factor (TF): TFN11A/N124A/N137A-GFP (protein)
parent chain: B1 parent chain
For the protein B4, the enzymatic_activity entry in series [5] and in series [7] was “no change” throughout. In series [6], the localisation_or_trafficking result was “no change”.

B5: tissue factor (TF): TFN11A/N124A (protein)
parent chain: B1 parent chain
On to B5, for which the enzymatic_activity entry in series [1] is “no change”. Also, in series [2], the localisation_or_trafficking entry is “no change”. The expression_or_secretion result in series [3] is on record as “no change”.

B6: tissue factor (TF): TFN11A/N137A (protein)
parent chain: B1 parent chain
With B6, the enzymatic_activity result in series [1] is listed as “no change”. In series [2], the localisation_or_trafficking entry is on record as “no change”. Also, the expression_or_secretion result in series [3] is “no change”.
